Test results taken from paper PMC9609871 (2022).

Biological target: PP2A catalytic subunit alpha (Homo sapiens, UniProt P67775)
Assay: biolayer interferometry (PP2A immobilized)

Chain of PP2A catalytic subunit alpha (P67775 whole entry): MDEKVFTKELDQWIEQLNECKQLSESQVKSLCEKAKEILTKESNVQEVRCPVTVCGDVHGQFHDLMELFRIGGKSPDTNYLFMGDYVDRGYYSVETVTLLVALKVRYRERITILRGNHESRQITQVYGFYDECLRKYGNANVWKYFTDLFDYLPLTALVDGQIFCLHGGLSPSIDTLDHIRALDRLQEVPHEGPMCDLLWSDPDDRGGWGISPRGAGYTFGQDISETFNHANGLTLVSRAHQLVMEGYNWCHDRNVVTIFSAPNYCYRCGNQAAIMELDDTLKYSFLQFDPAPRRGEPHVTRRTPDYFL

Kd: 228 nM
B1: Caspase 9 (protein)
chain: DEADRRLLRRCRLRLVEELQVDQLWDALLSRELFRPHMIEDIQRAGSGSRRDQARQLIIDLETRGSQALPLFISCLEDTGQDMLASFLRTNRQAAKLSKPTLENLTPVVLRPEIRKPEVLRPETPRPVDIGSGGFGDVGALESLRGNADLAYILSMEPCGHCLIINNVNFCRESGLRTRTGSNIDCEKLRRRFSSLHFMVEVKGDLTAKKMVLALLELAQQDHGALDCCVVVILSHGCQASHLQFPGAVYGTDGCPVSVEKIVNIFNGTSCPSLGGKPKLFFIQACGGEQKDHGFEVASTSPEDESPGSNPEPDATPFQEGLRTFDQLDAISSLPTPSDIFVSYSTFPGFVSWRDPKSGSWYVETLDDIFEQWAHSEDLQSLLLRVANAVSVKGIYKQMPGCFNFLRKKLFFKTS
